According to a protein production outcome set (Wang et al. 2014):

Assay: label from the status in PepcDB records
For “LTPLAQMAEGMERQDVSIDKWTLHAKQNLSLTEKEFYQKVQRLKQEYRQYDWVIAREDKMIKAIGTYTDKKNRTSFRLQLVTTLKKHNPTSYLLYEQMSLETPDSWNDTYEQFERETLGIFQEKVVIFTCLNGHLDDNMNIVLQKKANQLLNEFQARSVEHVVEPNFVSISAFTDEWEEYIMTSKHKMNLQIALRSAGMGGKHTVTVGTPIVTTEY”, the protein production was “not failed”.
With “LTTTSADYIGPIVEHQYLQWDNWPRLGEILRSEKPLAFQQESRFAHDTRARDAFNDAMVRLSQPMVDVVSELGVFARARTVIDLAGGHGTYLAQVLRRHPQLTGQIWDLPTTRDAARKTIHAHDLGGRVEFFEKNLLDARNFEGGAADVVMLNDCLHYFDAREAREVIGHAAGLVKPGGALLILTMTMNDDRVTPALSADFSLHMMVNTNHGELHPTPWIAGVVRDAGLAVGERSIGRYTLLIGQRSSGEV” the protein production was “failed”.
For “LVAVDEFIRRHFSQPVTMAELTGIAGMSAAQLERYCKKVFHLSPRQMIHKARLEHAHRLLHADMAITEVALRCGYADHSAFSRQFKALTGLTPRQYRQQ”, the protein production was “failed”.
In the case of “LVKETACAVVDKLKSGEVTPIEVLDVLEERIAEVDGAINALPTLCFDRARGHAAELMKKPPAERGLLAGLPVPIKDLTAVAGVLTTQGSPIYKDNVPARSDLMVEHLEGNGGVVYAKSNTPEFGAGANTFNEVFGATRNPWDLSRSAAGSSGGAAAALASGTAWLAHGSDMGGSLRNPASFCGIVGLRPSFGRVAHTPAAKIDRNLGVQGPMARNVEDVALLLDAMSGEYAADPLSIPSPATSFLAAARSRQKPLRVAYSPDLGITPVDPEVAAVTRKAAERFAEAGVIVEQAQPDLSEAHECFQALRAFDFAISKADLLRTKRDLLKPEVIWNIEQGLKLSVDDLAKAEAQRVAMTARTIEFFKTYDLLLCPATITAPFPVEQRYLAECNGHTFGNYVEWLGIVYAITLVCCPALSLPCGFTATGLPIGLQMVARPRNEAGLLAGAALLEDILGLKSTTP”, the protein production is reported as “failed”.
In the case of “LVVSEARFRAAIDAVQGVLWTNNASGKMVGEQPGWSALTGQIREEYEGVGWTKVVHPDDVEPTLSAWLAAVAEKRTFEFEHRVRRHDGVWRDCLIRAVPLIGDNGEIREWVGVHTDISEQKAAAEK”, the protein production is reported as “failed”.
In the case of “MAAAGEEYSSDKIEERSLAAIDSMIDPDISGPMRHIVVKAIHAAGDFAIAPLIRYSDGFFKSMLAKLKEGCTIICDSEMVRAGIYSRPVLERNRVVCYLNDVRSKEMADVNGITRSAAGIRIAMQDHRNSVIVIGNAPTALLEAMRMIEENGWYDIPIVGIPVGFINASKAKEGLVSSHIEYISVEGHRGGSPIAASIVNGFGRFLA”, the protein production is reported as “not failed”.
In the case of “MAAAMVPGRSESWERGEPGRPALYFCGSIRGGREDRTLYERIVSRLRRFGTVLTEHVAAAELGARGEEAAGGDRLIHEQDLEWLQQADVVVAEVTQPSLGVGYELGRAVAFNKRILCLFRPQSGRVLSAMIRGAADGSRFQVWDYEEGEVEALLDRYFEADPPGQVAASPDPTT”, the protein production is reported as “failed”.
With “MAADPASAPVLLHPRRAMVLAAGLGLRMRPLTETMPKPLVAIHDKPLIDWALDHLATAGVEEAVVNLHHLPEMLEAHLQGRATPRIHFSDETGQRLETGGGVRKALPHLGDDPFYVLNSDVLWLNGTIPALDRLAAAWDPETMDALLLLHPLAAAHGYEGLGDFDLDPLGRPTRRAEMHMAPFIFTGVQILHPRLFDDAPEGPFSLNVLYDRALSEDRLAAIVHDGEWYHVGTPQALVHTETILGQHSSMSDQLEHHHHHH” the protein production was “failed”.
For “MAAEIGSDSQLKRRRRRDPEGSEKTELSEREPALAVEGREENDDENEERWVGPLPVEATLAKKRKVLEFERVYLENLPSASMYERSYMHRDVITHVVCTKTDFIITASHDGHVKFWKKIEEGIEFVKHFRSHLGIIESIAVSSEGALFCSVGDDKAMKVFDVVNFDMINMLKLGYFPGQCEWIYCPGDAISSVAASEKSTGKIFIYDGRGDNQPLHIFDKLHVSPLTQIRLNPVYKAVVSSDKSGMIEYWTGPPHEYKFPKTVNWEYKTDTDLYEFAKCKAYPTSICFSPDGKKIATIGSDRKVRIFRFLTGKLMRVFDESLSMFTELQQMRQQLPDMEFGRRMAVERELEKVDAVRLINIVFDETGHFVLYGTMLGIKVINVETNRCVRILGKQENIRVMQLALFQGIAKKHRAAATIEMKASENPVLQNIQADPTIVCTSFKKNRFYMFTKREPEDTKSADSDRDVFNEKPSKEEVMAATQAEGPKRVSDSAIVHTSMGDIHIKLFPVECPKTVENFCVHSRNGYYNGHTFHRIIKGFMIQTGDPTGTGMGGESIWGGEFEDEFHSTLRHDRPYTLSMANAGSNTNGSQFFITVVPTPWLDNKHTVFGRVTKGMEVVQRISNVKVNPKTDKPYEDVSIINITVK”, the protein production was “failed”.
In the case of “MAAEPLTELEESIETVVTTFFTFARQEGRKDSLSVNEFKELVTQQLPHLLKDVGSLDEKMKSLDVNQDSELKFNEYWRLIGELAKEIRKKKDLKIRKK”, the protein production is reported as “not failed”.
In the case of “MAAFVRDYLEASVENETDGGRMRWYPWHSAEYRFTHIMNVVDIAERIAEATSANVDVVRVAALFHDIAKLEAEQDAHAEEGARIARKYLETHGQFPPSFVDQVAEAVSRHSYQGDLMDLPLEARCLVEADLLDKAGANGAALMLLRMGYEARTHVDAAEMIQRVLDRGEDAAERVESDAASSIAHRRLKRVRWLHDWLTSEVPAMNDTGY”, the protein production is reported as “failed”.
With “MAAGFFQAEMSILSSTLARSYSLPIRKTLMTFDFRIAMQRNPCLRIRRSCVAAFSSTPSHSRNFPIRGLEDVFVGYLFGRKKATEVAHVVWEQVIQKGDTVIDATCGNGNDTLAMLKMVMHDSVGCGGYVYAMDIQKDAIESTSSLLDQAVGSKEKECVKLFNLCHSKMGEIVPENARVRMVAFNLGYLPGGNKSIITLSDTTLSALKAAERILKPGGLISLVVYIGHPGGREELEVVEAFGSGLPVSDWICCKFQMLNRPLAPVLVFMFKREN” the protein production was “failed”.
For “MAAITEFLPKEYGYVVLVLVFYCFLNLWMGAQVGRARKRYNVPYPTLYAIESENKDAKLFNCVQRGHQNSLEMMPMYFILMILGGMKHPCICTGLGLLYNVSRFFYFKGYATGDPMKRLTIGKYGFLGLLGLMICTISFGVTLILA”, the protein production was “failed”.
In the case of “MAAKICNRKNCKRSVQKMRIRSLLIILTIGLLLVNAICVSALGQTSESIARGDVYFGLMRYRDAIAWYKLDSTKAEAQWKIARAYVCYGDNAVPAEKEYNFRNAVRAANKCIELEETNANGHTWLAAALGNTAMYEGSKTKVRLCTQIKKELNRAIALNPKDDIAYSILGSFYREIGNISWLEKQLAMTFIGKIPDGTYEDSEKAFAKAIALNPTIMRHWYEQGLLYKYWNKNEQAIASFNKAKACPVFVSSDNKRLAAIEVYLKNLQ”, the protein production is reported as “failed”.
With “MAAKPGIPKGTRDFSPVEMAKRNYIFNTIRDVFHLFGYQQIETPSMENLSTLMGKYGDEGDKLLFKIQNSGDYFNGITDEELLSRNAVKLASKFCEKGLRYDLTVPFARYVVMHRDEISFPFKRYQIQPVWRADRPQKGRYREFYQCDADVVGSNSLLNEVELVQMIDRVFGKFGVRVSIKINNRKILTGIAEIIGEADKIVDITVAIDKLDKIGLENVNAELASKGIPQEAIDKLQPIILLSGSNEEKLETLKTVLATSEAGLKGVEESEFILKTVSALGVKSEVELDLTLARGLNYYTGAIFEVKALDVQIGSISGGGRYDNLTGVFGMDGMSGVGISFGADRIFDVLNQLDLYPKE” the protein production was “not failed”.
For “MAALAEEQTEVAVKLEPEGPPTLLPPQAGDGAGEGSGGTPNNGPNGGGGGNVAVAAAAGGDGGTPKPGVAVSAAAPAGAAPVPAAPAEAGAPHDRQTLLAVLQFLRQSNLREAEEALRREARLLEEAVAGSGAPGELDGAGAEAASALLSRVTASVPGSAAPEPPGTGASVTSVFSGSASGPAAPGKVASVAVEDQPDVSAVLSAYNQQGDPTMYEEYYSGLKHFIECSLDCHRAELSQLFYPLFVHMYLELVYNQHENEAKSFFEKFHGDQECYYQDDLRVLSSLTKKEHMKGNETMLDFRTSKFVLRISRDSYQLLKRHLQEKQNNQIWNIVQEHLYIDIFDGMPRSKQQIDAMVGSLAGEAKREANKSKVFFGLLKEPEIEVPLDDEDEEGENEEGKPKKKKPKKDSIGSKSKKQDPNAPPQNRIPLPELKDSDKLDKIMNMKETTKRVRLGPDCLPSICFYTFLNAYQGLTAVDVTDDSSLIAGGFADSTVRVWSVTPKKLRSVKQASDLSLIDKESDDVLERIMDEKTASELKILYGHSGPVYGASFSPDRNYLLSSSEDGTVRLWSLQTFTCLVGYKGHNYPVWDTQFSPYGYYFVSGGHDRVARLWATDHYQPLRIFAGHLADVNCTRFHPNSNYVATGSADRTVRLWDVLNGNCVRIFTGHKGPIHSLTFSPNGRFLATGATDGRVLLWDIGHGLMVGELKGHTDTVCSLRFSRDGEILASGSMDNTVRLWDAVKAFEDLETDDFTTATGHINLPENSQELLLGTYMTKSTPVVHLHFTRRNLVLAAGAYSPQ”, the protein production was “failed”.
In the case of “MAAMPKPAAFWNDRFANEEYVYGEAPNRFVASAARTWLPEAGEVLLLGAGEGRNAVHLAREGHTVTAVDYAVEGLRKTERLATEAGVEVEAIQADVREWKPARAWDAVVVTFLHLPADERPGLYRLVQRCLRPGGRLVAEWFRPEQRTDGYTSGGPPDPAMMVTADELRGHFAEAGIDHLEAAEPTLDEGMHRGPAATVRLVWCRPSTSLEHHHHHH”, the protein production is reported as “not failed”.
For “MAANMYRVGDYVYFENSSSNPYLIRRIEELNKTANGNVEAKVVCFYRRRDISSTLIALADKHATLSVCYKAGPGADNGEEGEIEEEMENPEMVDLPEKLKHQLRHRELFLSRQLESLPATHIRGKCSVTLLNETESLKSYLEREDFFFYSLVYDPQQKTLLADKGEIRVGNRYQADITDLLKEGEEDGRDQSRLETQVWEAHNPLTDKQIDQFLVVARSVGTFARALDCSSSVRQPSLHMSAAAASRDITLFHAMDTLHKNIYDISKAISALVPQGGPVLCRDEMEEWSASEANLFEEALEKYGKDFTDIQQDFLPWKSLTSIIEYYYMWKTTDRYVQQKRLKAAEAESKLKQVYIPNYNKPNPNQISVNNVKAGVVNGTGAPGQSPGAGRACESCYTTQSYQWYSWGPPNMQCRLCASCWTYWKKYGGLKMPTRLDGERPGPNRSNMSPHGLPARSSGSPKFAMKTRQAFYLHTTKLTRIARRLCREILRPWHAARHPYLPINSAAIKAECTARLPEASQSPLVLKQAVRKPLEAVLRYLETHPRPPKPDPVKSVSSVLSSLTPAKVAPVINNGSPTILGKRSYEQHNGVDGNMKKRLLMPSRGLANHGQARHMGPSRNLLLNGKSYPTKVRLIRGGSLPPVKRRRMNWIDAPDDVFYMATEETRKIRKLLSSSETKRAARRPYKPIALRQSQALPPRPPPPAPVNDEPIVIED”, the protein production was “failed”.
With “MAAPLRIQSDWAQALRKDEGEAWLSCHPPGKPSLYGSLTCQGIGLDGIPEVTASEGFTVNEINKKSIHISCPKENASSKFLAPYTTFSRIHTKSITCLDISSRGGLGVSSSTDGTMKIWQASNGELRRVLEGHVFDVNCCRFFPSGLVVLSGGMDAQLKIWSAEDASCVVTFKGHKGGILDTAIVDRGRNVVSASRDGTARLWDCGRSGCLGVLADCGSSINGVAVGAADNSINLGSPEQMPSEREVGTEAKMLLLAREDKKLQCLGLQSRQLVFLFIGSDAFNCCTFLSGFLLLAGTQDGNIYQLDVRSPRAPVQVIHRSGAPVLSLLSVRDGFIASQGDGSCFIVQQDLDYVTELTGADCDPVYKVATWEKQIYTCCRDGLVRRYQLSDL” the protein production was “failed”.
For “MAAQALLSVGERRLLRGVDEQRALGAALARALAPGSVLFLEGELGAGKTTLTQGLLAALGFDGHVTSPTYALMQLYPASAGQVLHVDAYRVRDVAELYEMDLDELIAGSRLSVIEWGEGLYADYPQAPIYLFEHVEGDPETRRVTRRRLEHHHHHH”, the protein production was “failed”.
